Experimental data taken from publication PMC7815789, “Degradation of complex arabinoxylans by human colonic Bacteroidetes” (Nature Communications, 2021).

Target: the molecule itself
Assay: crystal structure; seleno-methionine-labeled BACINT_01033-CE1, 20 mg/ml in 50 mM Tris pH 7.5, 150 mM NaCl; sitting drop, room temperature; P3_(1)21 form from 0.1 M BIS-Tris pH 6.5, 20% PEG 1,500; dimer in the asymmetric unit

B1: BACINT_01033-CE1 (carbohydrate esterase family 1, ferulic acid esterase) (enzyme, Bacteroides intestinalis DSM 17393)
chain: QQQDFPAGTTPNEHNINGADYPRIGEDRRVHFRIHAPNAQKVEISFRGEMTKEADGYWSLVSKEPEVIGFHYYQVIIDGVSAADPNGKPFFGMGKWVSGIEIPEKGVDYYSIKNVPHGLISQSWYYSDIRKEWRRCIVYTPAEYDKNPTKKYPVLYLQHGMGENETSWANQGKMNFIMDNLIAEGKAKPMIVVMDNGNIEVFKTNSGETPEDARKRFGAEFPAILVNEIIPHIESNFRTLTDRDNRAMAGLSWGGLLTFNTTLNNLDKFAYIGGFSGAGSIDLKQLDTVYGGVFKNRKAFNDKVHVFFLGIGSEEHPERTKNLSDGLQAAGINTIYYESPGTAHEFLTWRRCLKEFAPLLFKTK
modifications: seleno-methionine-labeled
notes: BACINT_01033-CE1 of Bacteroides intestinalis DSM 17393; N-terminal Ig-like fold of ~100 residues followed by the esterase domain (residues 126-383); predicted signal peptide; Cloned NdeI/XhoI into pET-28a; also called Bi1033-CE1; Bi1033; source: E. coli BL21 (DE3), seleno-methionine-labeled, purified (HisTrap, Superdex 200)
- stoichiometry N: 2
